± gives the standard error. Fewer inactive variants are shown than the library holds.
B1: glmS ribozyme (parent)
chain: AUAAAAGCGCCAGAACUACAGAAAUGUAGUUGACGAGGAGGAGGUUUAUCGAAUUUUCGGCGGAUGCCUCCAAA

Key:
Settings in all cases: with glucosamine-6-phosphate
[1] = variants of: B1; assay: self-cleavage kobs at 640 uM GlcN6P; higher = faster cleavage; RNA array
How it was run: (§1)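 Over ~14 h at 37 °C, tiles were imaged as glucosamine-6-phosphate (40 μM to 10 mM) in HEPES/KCl/Mg(OAc)2 buffer flowed across sequenced MiSeq chips. The chips carried barcoded ribozyme variants transcribed in situ by E. coli RNA polymerase and tracked with a hybridised Cy3 probe. After normalisation to baseline and to non-cleaving reference variants, one- or two-exponential decay fits of per-tile medians gave kobs. kcat and KM followed from weighted Michaelis–Menten fits across concentrations.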

[2] = variants of: B1; assay: self-cleavage kobs at 10000 uM GlcN6P; higher = faster cleavage; RNA array
How it was run: as §1

[3] = variants of: B1; assay: self-cleavage kobs at 2500 uM GlcN6P; higher = faster cleavage; RNA array
How it was run: as §1

[4] = variants of: B1; assay: self-cleavage kobs at 160 uM GlcN6P; higher = faster cleavage; RNA array
How it was run: as §1

Variant	self-cleavage kobs at 640 uM GlcN6P [1] [s⁻¹]	self-cleavage kobs at 10000 uM GlcN6P [2] [s⁻¹]	self-cleavage kobs at 2500 uM GlcN6P [3] [s⁻¹]	self-cleavage kobs at 160 uM GlcN6P [4] [s⁻¹]
A6C C16G G32U A33G G38U	< 1e-05	< 1e-05	–	–
A6U G37A U55G C71G	< 1e-05	< 1e-05	–	–
A6U A33C A39U C71U	< 1e-05	–	–	–
A6U C16U U54A	4.1e-05 ± 1.3e-05	–	0.000121 ± 3e-05	–
G7A A12G U31A C68G	0.000116 ± 3.5e-05	–	–	–
A6U C10U G32C	< 1e-05	–	–	–
G59A G62U	–	–	< 1e-05	< 1e-05
A6C A36C U56G	< 1e-05	–	< 1e-05	–
G60A C68G	7.21e-05 ± 1.6e-05	–	6.95e-05 ± 2.5e-05	8.43e-05 ± 3.9e-05
A6U A39C G60A	< 1e-05	–	–	–
G7A A39G A64C C71U	< 1e-05	–	< 1e-05	–
A6G G37U U47G C50G C58G C67A	7e-05 ± 2.9e-05	–	–	–
G7U G40A G59U	< 1e-05	–	–	–
A48U G59C	< 1e-05	< 1e-05	< 1e-05	< 1e-05
G59U C67U C68U U69C	–	–	–	4.87e-05 ± 2.4e-05
U46G U55G G60C	–	–	< 1e-05	< 1e-05
G7C G38C A48C	< 1e-05	–	< 1e-05	–
A6G G37A G41A	< 1e-05	< 1e-05	< 1e-05	–
A6U G38U A39C U55A	< 1e-05	–	< 1e-05	–
G60A C61U	< 1e-05	< 1e-05	< 1e-05	< 1e-05
G44U C61A C67U C70G	< 1e-05	–	< 1e-05	< 1e-05
G7A C16G U30G G44U A52G	< 1e-05	–	< 1e-05	–
A48C U55A G66C	–	–	–	< 1e-05
C58A G59C	< 1e-05	< 1e-05	–	< 1e-05
A6G C11A G59U G60C	< 1e-05	–	–	–

Variant	self-cleavage kobs at 640 uM GlcN6P [1] [s⁻¹]	self-cleavage kobs at 10000 uM GlcN6P [2] [s⁻¹]	self-cleavage kobs at 2500 uM GlcN6P [3] [s⁻¹]	self-cleavage kobs at 160 uM GlcN6P [4] [s⁻¹]
U49C G62A	< 1e-05	< 1e-05	–	< 1e-05
U49C G62U	< 1e-05	< 1e-05	< 1e-05	< 1e-05
A6U G40C G44C C50U	< 1e-05	–	< 1e-05	–
C50U C70G	8.51e-05 ± 1.6e-05	–	6.07e-05 ± 1.3e-05	0.000293 ± 0.00013
G7A G38C C58A	< 1e-05	–	< 1e-05	–
A6U A12G G59C C67A	< 1e-05	–	–	–
A6U G13U G37U A48U U69G	9.26e-05 ± 2.7e-05	–	–	–
A6G G7U U31C A36C	< 1e-05	–	< 1e-05	–
G43C U55G U56G C67G	–	–	–	< 1e-05
A6G A42C C58U	< 1e-05	–	< 1e-05	–
U55G C68A	6.91e-05 ± 2.2e-05	2.8e-05 ± 1.4e-05	9.69e-05 ± 1.8e-05	0.000151 ± 6.4e-05
A6U A15G G62U U69G	0.000197 ± 5.9e-05	–	–	–
G7A G9U G13U A48C	< 1e-05	–	–	–
A6C U30A C67G	< 1e-05	–	–	–
G43C U55A	< 1e-05	–	–	< 1e-05
U46C C58U C67A	–	–	–	< 1e-05
G7U G32C G38C A42U C50U	< 1e-05	–	–	–
G7U C8A G13A	< 1e-05	–	–	–
U57G G62C A64U	–	< 1e-05	< 1e-05	< 1e-05
A6U A15G C19A A33C C68G	< 1e-05	–	< 1e-05	–
A6C A42C C50A U54G G59C C61U	< 1e-05	–	–	–
A6C U45C G51C U65G C70G	< 1e-05	–	< 1e-05	–
A6C G41A C68A U69C	< 1e-05	< 1e-05	–	–
A6C U31C C70A	7.34e-05 ± 3e-05	–	–	–
G7C C10A C71A	< 1e-05	–	–	–

Variant	self-cleavage kobs at 640 uM GlcN6P [1] [s⁻¹]	self-cleavage kobs at 10000 uM GlcN6P [2] [s⁻¹]	self-cleavage kobs at 2500 uM GlcN6P [3] [s⁻¹]	self-cleavage kobs at 160 uM GlcN6P [4] [s⁻¹]
A6G G9U C58A	< 1e-05	< 1e-05	< 1e-05	–
G7C U69A C70U	< 1e-05	–	–	–
C58G U69A	0.000406 ± 9.6e-05	–	–	5.46e-05 ± 2.7e-05
G7C A12U G41U	< 1e-05	–	< 1e-05	–
G43C U55A A64U	–	–	–	< 1e-05
U54C U56A G59C U65A	–	–	< 1e-05	< 1e-05
C58G C70A	4.04e-05 ± 1.9e-05	–	5.93e-05 ± 1.4e-05	0.000411 ± 0.00017
G7C C11U G59U C61U	< 1e-05	–	–	–
A6G U31A A36G A48U	< 1e-05	–	–	–
G7U G9A U31C G35A A52U	< 1e-05	–	–	–
G7A U31C A52G	< 1e-05	–	–	–
A6U G37C G38A C71A	< 1e-05	–	–	–
U55C C58U	–	6.55e-05 ± 8.7e-06	–	< 1e-05
A6U U54C C68G U69G	0.00033 ± 9.7e-05	–	–	–
A6U U31G C67G	< 1e-05	–	–	–
A4C G32U U47G	8.66e-05 ± 2.2e-05	–	0.000118 ± 3.5e-05	–
G7A C11U A52U C58A G62U	< 1e-05	–	–	–
C61G G62U	< 1e-05	–	< 1e-05	< 1e-05
A6C A39U G41C A52U	< 1e-05	–	< 1e-05	–
G7A A15U G51C A64G	< 1e-05	–	–	–
C50G G51A	–	< 1e-05	–	< 1e-05
G7U C67U C71G	7.36e-05 ± 2.2e-05	–	–	–
U45G C61A	< 1e-05	< 1e-05	< 1e-05	< 1e-05
G7U G9U U31A G37A A52C C67U U69C	< 1e-05	–	–	–
U46G U49A	< 1e-05	< 1e-05	< 1e-05	< 1e-05

Variant	self-cleavage kobs at 640 uM GlcN6P [1] [s⁻¹]	self-cleavage kobs at 10000 uM GlcN6P [2] [s⁻¹]	self-cleavage kobs at 2500 uM GlcN6P [3] [s⁻¹]	self-cleavage kobs at 160 uM GlcN6P [4] [s⁻¹]
C61G G62A C67U C68A	4.43e-05 ± 1.5e-05	–	0.000107 ± 2.2e-05	0.000136 ± 2.6e-05
G7C G9C A36G G51C	< 1e-05	–	–	–
G7U A12U G40U U55C C71A	< 1e-05	–	< 1e-05	–
G7U G9A G38U	< 1e-05	–	–	–
A6U U56C C68G	< 1e-05	–	< 1e-05	–
G43A G60C	< 1e-05	< 1e-05	< 1e-05	< 1e-05
G7A U55C C58G	< 1e-05	–	–	–
A64U C68U	< 1e-05	–	–	< 1e-05
C58U C68G	0.000137 ± 2.7e-05	–	8.11e-05 ± 2e-05	4.79e-05 ± 1.6e-05
A6C G13C U47G A48U U65A	< 1e-05	–	–	–
G60C G63A	< 1e-05	< 1e-05	< 1e-05	< 1e-05
G7C C16U G32C G43A C50U	< 1e-05	–	–	–
G7C C34A A42C C71U	< 1e-05	–	–	–
A6G C58U U69A	0.000521 ± 0.00019	–	–	–
A6C A14U U55G	< 1e-05	–	–	–
U45C U46C	0.000335 ± 5.7e-05	–	0.00111 ± 0.00037	0.000106 ± 3e-05
G7C C8G C10U C70G	0.000355 ± 0.0001	–	–	–
G44C A64U	–	–	< 1e-05	< 1e-05
A6U C10U G35C A48U G63A	< 1e-05	–	–	–
G51C U56C	< 1e-05	< 1e-05	< 1e-05	< 1e-05
G43A G59A A64U	–	< 1e-05	–	< 1e-05
U46A C61G	< 1e-05	–	< 1e-05	< 1e-05
G7A G40U C58U	< 1e-05	–	< 1e-05	–
U2A	0.0236 ± 0.0098	–	–	–
A6C A12C A39C C67U	< 1e-05	< 1e-05	< 1e-05	–

Variant	self-cleavage kobs at 640 uM GlcN6P [1] [s⁻¹]	self-cleavage kobs at 10000 uM GlcN6P [2] [s⁻¹]	self-cleavage kobs at 2500 uM GlcN6P [3] [s⁻¹]	self-cleavage kobs at 160 uM GlcN6P [4] [s⁻¹]
G7U A39G U47C G59C	< 1e-05	–	–	–
A6G A36G G41A	< 1e-05	< 1e-05	–	–
C50U U56C C68U C70U	–	–	–	< 1e-05
A6U U45A C50G U65G U69G	< 1e-05	–	–	–
A6G A14G A33U	< 1e-05	–	–	–
G7U C16U U30G	< 1e-05	–	–	–
A6G G32U C61A	< 1e-05	–	< 1e-05	–
G7A A15G U30C A48G U57A	< 1e-05	–	< 1e-05	–
G51U A53U C58A C70A	7.01e-05 ± 2.6e-05	–	5.47e-05 ± 2.1e-05	8.95e-05 ± 1.6e-05
A6U G44U U49G	< 1e-05	–	–	–
G60U C68U	–	< 1e-05	–	< 1e-05
U46G U49G G63A A64C	< 1e-05	–	< 1e-05	< 1e-05
G7U G40A G60U	< 1e-05	–	< 1e-05	–
A6U G37A U54A	< 1e-05	–	–	–
A6U A39C U56C C67G	< 1e-05	–	–	–
A6U G35C C68G C70U	0.000713 ± 0.00023	–	–	–
A6G U30G G43C G60U C71G	< 1e-05	–	–	–
G7A U31G G41U C68U	< 1e-05	–	–	–
C50G A53G C61U	0.000248 ± 8.1e-05	9.79e-05 ± 2.5e-05	0.000398 ± 9.7e-05	0.000208 ± 7.8e-05
A48C C50A A52G	–	–	< 1e-05	< 1e-05
U49A U54A C70G	–	–	–	4.17e-05 ± 1.8e-05
G44A U49A	< 1e-05	< 1e-05	< 1e-05	< 1e-05
